Laboratory results reported in doi:10.1101/2020.05.28.122556.

Assays:
[1] = target: EED (amino acids 40-441) (human) (UniProt O75530); assay: fluorescence polarisation
[2] = target: 5-carboxyfluorescein (5-FAM, single isomer) labelled JARID2-K116me3 peptide; assay: fluorescence polarisation

Sequence of EED (amino acids 40-441) (human) (O75530 40-441): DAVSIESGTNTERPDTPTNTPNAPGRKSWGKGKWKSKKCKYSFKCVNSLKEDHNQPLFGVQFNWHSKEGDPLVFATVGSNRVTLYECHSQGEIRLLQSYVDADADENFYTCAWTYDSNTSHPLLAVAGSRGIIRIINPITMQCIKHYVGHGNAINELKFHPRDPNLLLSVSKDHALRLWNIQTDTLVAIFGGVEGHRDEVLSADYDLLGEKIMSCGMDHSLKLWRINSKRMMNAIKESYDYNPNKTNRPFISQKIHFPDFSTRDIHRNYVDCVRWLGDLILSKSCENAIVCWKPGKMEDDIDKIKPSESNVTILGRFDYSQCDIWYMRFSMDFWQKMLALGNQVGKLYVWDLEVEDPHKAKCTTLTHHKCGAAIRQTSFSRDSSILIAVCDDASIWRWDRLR
Sequence of EED (amino acids 40-441) (O75530 40-441): as above

Row | Substance | Kd [1] [µM] | other results
1 | PALI1-K1241me1 peptide | 240 | –
2 | PALI1-K1214me3 peptide | – | fold lower affinity than PALI1-K1219me3 and PALI1-K1241me3 [1]: 4 fold
3 | EED (amino acids 40-441) (from UniProt O75530-1 40-441) (domain or fragment) | – | Kd [2]: 8.07 µM

Continued, in another order:

Row | Kd [1] [µM] | Substance | other results
4 | 7.53 | PALI1-K1219me3 peptide | –
5 | 41.3 | H3K27me3 peptide | –
6 | 18.8 | PALI1-K1241me2 peptide | –
7 | 8.47 | PALI1-K1241me3 peptide | –
